Experiments:
[1] = biological target: T1, p75 MLL substrate with mutant CS1/CS2 sites (MLL aa 2,400 to 2,900 of noncleavable MLL mt, Myc/Flag tagged), Q03164
T1 chain: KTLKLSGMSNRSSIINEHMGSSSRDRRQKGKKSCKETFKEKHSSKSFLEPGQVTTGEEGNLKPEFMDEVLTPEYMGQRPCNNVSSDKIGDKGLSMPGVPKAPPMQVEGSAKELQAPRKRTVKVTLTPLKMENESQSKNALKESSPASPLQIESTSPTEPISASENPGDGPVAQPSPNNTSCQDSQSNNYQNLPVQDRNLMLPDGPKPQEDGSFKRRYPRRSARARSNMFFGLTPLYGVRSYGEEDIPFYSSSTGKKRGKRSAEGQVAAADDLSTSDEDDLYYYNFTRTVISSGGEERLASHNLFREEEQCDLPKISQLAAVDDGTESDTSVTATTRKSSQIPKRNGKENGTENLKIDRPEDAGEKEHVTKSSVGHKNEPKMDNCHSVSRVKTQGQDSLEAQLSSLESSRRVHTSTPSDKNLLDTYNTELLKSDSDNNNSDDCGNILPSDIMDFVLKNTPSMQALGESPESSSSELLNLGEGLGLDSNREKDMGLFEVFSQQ

[2] = biological target: T2, p75 MLL test substrate, wild type (MLL aa 2,400 to 2,900, N-terminal Myc tag, C-terminal Flag tag), Q03164
T2 chain: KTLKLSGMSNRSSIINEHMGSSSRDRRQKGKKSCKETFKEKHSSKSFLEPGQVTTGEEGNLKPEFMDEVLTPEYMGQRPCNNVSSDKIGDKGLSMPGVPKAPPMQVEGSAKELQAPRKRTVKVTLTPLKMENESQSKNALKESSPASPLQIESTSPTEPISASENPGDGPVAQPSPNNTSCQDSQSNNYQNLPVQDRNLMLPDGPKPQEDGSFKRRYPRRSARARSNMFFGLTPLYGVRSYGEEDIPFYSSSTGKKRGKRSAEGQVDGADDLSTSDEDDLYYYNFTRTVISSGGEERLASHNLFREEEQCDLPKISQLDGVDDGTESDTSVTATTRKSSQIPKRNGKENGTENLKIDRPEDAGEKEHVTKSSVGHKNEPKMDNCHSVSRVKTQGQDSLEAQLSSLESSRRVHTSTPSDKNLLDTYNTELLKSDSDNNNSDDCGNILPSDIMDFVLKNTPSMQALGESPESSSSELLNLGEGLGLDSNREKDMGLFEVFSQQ

[3] = biological target: T3, His-tagged 28 kDa alpha subunit of recombinant Taspase1 (human, UniProt Q9H6P5 1-233); assay: co-purification on a TALON column of N-terminal His-tagged Taspase1 from E. coli, Coomassie-stained SDS-PAGE, Edman degradation of the 22 kDa band
T3 construct: also called 28 kDa N-terminal alpha subunit; 29 kDa alpha; not shown: N-terminal His tag from bacterial expression vector ET15b (Novagen)
T3 sequence: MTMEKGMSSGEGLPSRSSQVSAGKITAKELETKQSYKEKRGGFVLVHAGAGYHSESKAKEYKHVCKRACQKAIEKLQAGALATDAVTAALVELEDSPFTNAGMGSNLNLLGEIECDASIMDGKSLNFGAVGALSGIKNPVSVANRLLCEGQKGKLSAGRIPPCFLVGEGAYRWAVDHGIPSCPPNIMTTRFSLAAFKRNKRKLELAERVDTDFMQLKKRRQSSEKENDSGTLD
Text: Purification of recombinant N-terminal His-tagged Taspase1 yielded an expected 50 kDa product, a His-tagged 28 kDa a subunit, and a co-purified 22 kDa polypeptide (FIG. 5A). […] Similarly when an N-terminal and C-terminal epitope tagged human Taspase1 cDNA was expressed in the human 293 T cell line, the 50 kDa product also appeared to be processed to a 28 kDa N-terminal α subunit and a 22 kDa C-terminal β subunit (FIG. 3D). […] However, the D233A mutant retained some residual enzymatic activity, although it was ˜1000 fold less efficient than the wt enzyme (FIG. 5B, middle panel). […] Thus, this MLL cleaving protease is the first endopeptidase within the Asparaginase_{—}2 family with the novel characteristic of being a threonine aspartase, Taspase1.
His-tagged Taspase1 was expressed in BL21(DE3) cells and purified with a TALON column (Clontech). N-terminal protein sequencing was performed by Molecular Biology Core Facility at the Dana-Farber Cancer Institute.

B1: Recombinant N-terminal His-tagged Taspase1 (rTaspase1), wild type, expressed in E. coli (protein)
chain 1: MTMEKGMSSGEGLPSRSSQVSAGKITAKELETKQSYKEKRGGFVLVHAGAGYHSESKAKEYKHVCKRACQKAIEKLQAGALATDAVTAALVELEDSPFTNAGMGSNLNLLGEIECDASIMDGKSLNFGAVGALSGIKNPVSVANRLLCEGQKGKLSAGRIPPCFLVGEGAYRWAVDHGIPSCPPNIMTTRFSLAAFKRNKRKLELAERVDTDFMQLKKRRQSSEKENDSGTLD
chain 2: TVGAVVVDHEGNVAAAVSSGGLALKHPGRVGQAALYGCGCWAENTGAHNPYSTAVSTSGCGEHLVRTILARECSHALQAEDAHQALLETMQNKFISSPFLASEDGVLGGVIVLRSCRCSAEPDSSQNKQTLLVEFLWSHTTESMCVGYMSAQDGKAKTHISRLPPGAVAGQSVAIEGGVCRLESPVN
For B1, the “in vitro cleavage of 35S-methionine labeled p75 MLL substrate” value [1] was “but not the CS1/2 mt substrate”, the “in vitro cleavage of 35S-methionine labeled p75 MLL substrate” value [2] was “Recombinant Taspase1 (rTaspase1) cleaved the wt p75 MLL” and the “in vitro cleavage, enzyme titration and time course (appearance of p47 and p42 fragments)” value [2] was “The p47 fragment appears first, while higher enzyme concentration or more time is needed for the appearance of the p42 fragment”.

B2: 22 kDa beta subunit of recombinant Taspase1 (enzyme)
chain: TVGAVVVDHEGNVAAAVSSGGLALKHPGRVGQAALYGCGCWAENTGAHNPYSTAVSTSGCGEHLVRTILARECSHALQAEDAHQALLETMQNKFISSPFLASEDGVLGGVIVLRSCRCSAEPDSSQNKQTLLVEFLWSHTTESMCVGYMSAQDGKAKTHISRLPPGAVAGQSVAIEGGVCRLESPVN
notes: also called co-purified 22 kDa polypeptide; 22 kDa C-terminal beta subunit
B2: binds [3].

B3: Recombinant His-tagged Taspase1 D233A mutant (E. coli) (protein)
chain: MTMEKGMSSGEGLPSRSSQVSAGKITAKELETKQSYKEKRGGFVLVHAGAGYHSESKAKEYKHVCKRACQKAIEKLQAGALATDAVTAALVELEDSPFTNAGMGSNLNLLGEIECDASIMDGKSLNFGAVGALSGIKNPVSVANRLLCEGQKGKLSAGRIPPCFLVGEGAYRWAVDHGIPSCPPNIMTTRFSLAAFKRNKRKLELAERVDTDFMQLKKRRQSSEKENDSGTLATVGAVVVDHEGNVAAAVSSGGLALKHPGRVGQAALYGCGCWAENTGAHNPYSTAVSTSGCGEHLVRTILARECSHALQAEDAHQALLETMQNKFISSPFLASEDGVLGGVIVLRSCRCSAEPDSSQNKQTLLVEFLWSHTTESMCVGYMSAQDGKAKTHISRLPPGAVAGQSVAIEGGVCRLESPVN
For B3, the “in vitro cleavage activity of purified recombinant mutant enzyme” value [2] was “˜1000 fold less efficient than the wt enzyme”.

B4: Recombinant His-tagged Taspase1 T234A mutant (E. coli) (protein)
chain: MTMEKGMSSGEGLPSRSSQVSAGKITAKELETKQSYKEKRGGFVLVHAGAGYHSESKAKEYKHVCKRACQKAIEKLQAGALATDAVTAALVELEDSPFTNAGMGSNLNLLGEIECDASIMDGKSLNFGAVGALSGIKNPVSVANRLLCEGQKGKLSAGRIPPCFLVGEGAYRWAVDHGIPSCPPNIMTTRFSLAAFKRNKRKLELAERVDTDFMQLKKRRQSSEKENDSGTLDAVGAVVVDHEGNVAAAVSSGGLALKHPGRVGQAALYGCGCWAENTGAHNPYSTAVSTSGCGEHLVRTILARECSHALQAEDAHQALLETMQNKFISSPFLASEDGVLGGVIVLRSCRCSAEPDSSQNKQTLLVEFLWSHTTESMCVGYMSAQDGKAKTHISRLPPGAVAGQSVAIEGGVCRLESPVN
For B4, the “in vitro cleavage activity of purified recombinant mutant enzyme” value [2] was “threonine 234 which became the N-terminus of the β subunit is absolutely essential for cleavage activity”.

From patent US20060068482A1 (Dana-Farber, published 2006)
